In US20240392014A1 (OREGON HEALTH AND SCIENCE UNIVERSITY, published 2024):

Target: T1, CCR5 on CD4+ T cells of a Mauritian cynomolgus macaque (Mauritian cynomolgus macaque, UniProt P61814 1-352)
T1 construct: also called cynomolgus macaque CCR5
Test: in vivo CCR5 receptor occupancy on CD4+ T cells after AAV9-huLeron, flow cytometry; also near full CCR5 RO in mesenteric lymph nodes and spleen
Method: The ability of the leronlimab-delivering AAV to transduce myocytes, trigger them to produce leronlimab, and subsequently contain CCR5-tropic retroviral replication was tested. An AAV9 encoding human Fc leronlimab (AAV9-huLeron) was administered at 2×10¹² AAV genomes/kg of to a Mauritian cynomolgus macaque (MCM) chronically infected with the CCR5-tropic virus SHIVSF162P3. […] Leronlimab was detectable in plasma at week 3 after administration of leronlimab-AAV following achievement of full CCR5 receptor occupancy in peripheral blood (FIGS. 2A and 2C). Leronlimab persisted in the plasma for one year post leronlimab-AAV administration (FIG. 2A) without appearance of any ADA (FIG. 2B). Following leronlimab-AAV administration and full CCR5 RO on peripheral blood CD4+ T cells, plasma viral loads fell to undetectable levels. Plasma viremia “blips” that coincided with transient dips in CCR5 RO and plasma leronlimab levels were observed. Finally, CD4+ T cells from mesenteric lymph nodes (LN) and spleen maintained near full CCR5 RO (FIG. 2D). Cell-associated SHIV DNA (FIG. 2E) and RNA (FIG. 2F) decreased in blood and spleen, with minimal decreases in mesenteric LN.

B1: human Fc leronlimab (expressed in vivo from AAV9-huLeron) (antibody, V domains shown)
VH: EVQLVESGGGLVKPGGSLRLSCAASGYTFSNYWIGWVRQAPGKGLEWIGDIYPGGNYIRNNEKFKDKTTLSADTSKNTAYLQMNSLKTEDTAVYYCGSSFGSNYVFAWFTYWGQGTLVTVSS
VL: DIVMTQSPLSLPVTPGEPASISCRSSQRLLSSYGHTYLHWYLQKPGQSPQLLIYEVSNRFSGVPDRFSGSGSGTDFTLKISRVEAEDVGVYYCSQSTHVPLTFGQGTKVEIK
notes: also called PRO 140; PRO140
Question: Does B1 bind?
Answer: binds
